Measurements: PMC4646777 (Science Advances, 2015)

B1: Arabidopsis TPR4 TOPLESS domain (TPD), TPR4(1–209), tag removed (domain or fragment, UniProt Q27GK7 1-209, looked up)
chain: MSSLSRELVFLILQFLDEEKFKDTVHRLEKESGFFFNMRYFEDSVTAGEWDDVEKYLSGFTKVDDNRYSMKIFFEIRKQKYLEALDKKDHAKAVDILVKELKVFSTFNEELFKEITMLLTLTNFRENEQLSKYGDTKSARGIMLGELKKLIEANPLFRDKLQFPSLKNSRLRTLINQSLNWQHQLCKNPRPNPDIKTLFVDHTCGHPNG
B2: Arabidopsis TPR2 TOPLESS domain (TPD), TPR2(1–209), tag removed (domain or fragment, UniProt Q9LRZ0 1-209, looked up)
chain: MSSLSRELVFLILQFLDEEKFKESVHKLEQESGFFFNIKYFEEKALAGEWDEVEKYLSGFTKVDDNRYSMKIFFEIRKQKYLEALDRNDRAKAVEILAKDLKVFATFNEELYKEITQLLTLENFRENEQLSKYGDTKSARSIMYTELKKLIEANPLFREKLAFPSFKASRLRTLINQSLNWQHQLCKNPRPNPDIKTLFLDHSCSPSNG
B3: OsTPR2 TOPLESS domain (TPD), TPR2(1–210), tag removed (domain or fragment, rice, UniProt Q5NBT9 1-210, looked up)
chain: MSSLSRELVFLILQFLDEEKFKETVHKLEQESGFFFNMKYFEEKVHAGEWDEVEKYLSGFTKVDDNRYSMKIFFEIRKQKYLEALDRHDRAKAVDILVKDLKVFSTFNEELYKEITQLLTLENFRENEQLSKYGDTKSARSIMLIELKKLIEANPLFREKLVFPTLKASRLRTLINQSLNWQHQLCKNPRPNPDIKTLFTDHTCTPPNGA
B4: Arabidopsis TPL TOPLESS domain (TPD), TPL(1–209), tag removed (domain or fragment, UniProt Q94AI7 1-209, looked up)
chain: MSSLSRELVFLILQFLDEEKFKETVHKLEQESGFFFNMKYFEDEVHNGNWDEVEKYLSGFTKVDDNRYSMKIFFEIRKQKYLEALDKHDRPKAVDILVKDLKVFSTFNEELFKEITQLLTLENFRENEQLSKYGDTKSARAIMLVELKKLIEANPLFRDKLQFPTLRNSRLRTLINQSLNWQHQLCKNPRPNPDIKTLFVDHSCGPPNG
B5: Arabidopsis TPR1 TOPLESS domain (TPD), TPR1(1–209), tag removed (domain or fragment, UniProt Q0WV90 1-209, looked up)
chain: MSSLSRELVFLILQFLDEEKFKETVHKLEQESGFFFNMKYFEDEVHNGNWDEVEKYLSGFTKVDDNRYSMKIFFEIRKQKYLEALDRHDRPKAVDILVKDLKVFSTFNEELFKEITQLLTLENFRENEQLSKYGDTKSARAIMLVELKKLIEANPLFRDKLQFPTLRTSRLRTLINQSLNWQHQLCKNPRPNPDIKTLFVDHSCRLPND
B6: OsTPR1 TOPLESS domain (TPD), TPR1(1–209), tag removed (domain or fragment, rice, UniProt Q10NY2 1-209, looked up)
chain: MSSLSRELVFLILQFLDEEKFKETVHKLEQESGFYFNMKYFEDEVINGNWDEVERYLGGFTKVDDNRYSMKIFFEIRKQKYLEALDKHDRSKAVEILVKDLKVFASFNEELFKEITQLLTLENFRENEQLSKYGDTKSARAIMLVELKKLIEANPLFRDKLQFPNLKSSRLRTLINQSLNWQHQLCKNPRPNPDIKTLFVDHSCGQPNG
B7: VP16-OsTPR2 full length (natural protein, rice, UniProt Q5NBT9 1-1129, looked up)
chain: MSSLSRELVFLILQFLDEEKFKETVHKLEQESGFFFNMKYFEEKVHAGEWDEVEKYLSGFTKVDDNRYSMKIFFEIRKQKYLEALDRHDRAKAVDILVKDLKVFSTFNEELYKEITQLLTLENFRENEQLSKYGDTKSARSIMLIELKKLIEANPLFREKLVFPTLKASRLRTLINQSLNWQHQLCKNPRPNPDIKTLFTDHTCTPPNGARASPVSVPLAAVPKAGGTYPPLTAHTPFQPPPAGPSLAGWMANAAAATSSVPSAVVAASSLPVPPNQAVPIMKRPTITDYQSAESEQLMKRLRPSGHGVDEATYPAPIPQPLWSVEDLPRTVACTLSQGSSVTSMDFHPTRHTLLLVGSTNGEITLWEVGMRERLFSKPFKIWDIQACSPQFQSVAKESSISINRVTWSPDGDLIGVAFAKHLIHLHAYQQPNETRQVLEIDAHSGAVNDIAFSRPNKQLCVVTCGDDRLIKVWDMHGQKLFSFEGHEAPVYSICPHHKESIQFIFSTSLDGKIKAWLYDHMGSRVDYDAPGKWCTTMLYSADGTRLFSCGTSKDGDSYLVEWNESEGSIKRTYSGFRKKSAGVGVVQFDTAQNHILAAGEDNQIKFWDVDNTTMLSSTEADGGLPGLPRLRFNKEGNLLAVTTVDNGFKILANADGLRTLRAFGNRPFEAFRSQYEASSMKVSGAPVVAGISPNIGRMDHIDRNSPAKPSPIMNGGDPASRSIDIKPRISEERPDKAKPWELMEVLNAQQCRVATMPETPDQASKVVRLLYTNSGVGLLALGSNAIQRLWKWARNDQNPSGKATANVVPQHWQPNSGLVMQNDTADTNPEDAVPCIALSKNDSYVMSACGGKVSLFNMMTFKVMTTFMPPPPASTFLAFHPQDNNIIAIGMEDSTIHIYNVRVDEVKTRLKGHQRRITGLAFSNNLQILVSSGADAQLCVWATDTWEKKKSVAIQMPAGKTPSGDTWVQFNSDWSRLLVVHETQLAIYDASKMERIYQWIPQDALSAPISHASYSRNSQLVFAAFTDGNIGIFDVENLRLRCRIAPPAYLSSAAINSNPSVYPLVVAAHPQESNQFAVGLSDGSVKVIEPLESEGKWGTTPPTENGVPNGRTSTSSATSNPAADQIQR
B8: OsTPL TOPLESS domain (TPD), TPL(1–209), tag removed (domain or fragment, rice, UniProt Q0J7U6 1-209, looked up)
chain: MSSLSRELVFLILQFLDEEKFKETVHKLEQESAFYFNMKHFEDLVQGGEWDEVEKYLSGFTKVEDNRYSMKIFFEIRKQKYLEALDRHDRAKAVEILVKDLKVFASFNEELFKEITQLLTLENFRQNEQLSKYGDTKSARNIMLMELKKLIEANPLFRDKLNFPPFKVSRLRTLINQSLNWQHQLCKNPRPNPDIKTLFTDHSCAAPTN
B9: Arabidopsis TPR3 TOPLESS domain (TPD), TPR3(1–209), tag removed (domain or fragment, UniProt Q84JM4 1-209, looked up)
chain: MSSLSRELVFLILQFLEEEKFKESVHRLEKESGFFFNTKYFDEKVLAGEWDDVETYLSGFTKVDDNRYSMKIFFEIRKQKYLEALDRQEKAKAVEILVQDLRVFSTFNEELYKEITQLLTLQNFRENEQLSKYGDTKTARGIMLGELKKLIEANPLFRDKLMFPTLRSSRLRTLINQSLNWQHQLCKNPRPNPDIKTLFTDHTCTLPNG

What was measured:
[1] = target: TraM-NINJA EAR fusion protein (tetrameric), untagged (not stated | Arabidopsis); test: SEC
[2] = target: H6-tagged OsTPR2 N-terminal domain (TPD), TPR2(1–210) (rice) (UniProt Q5NBT9); test: AlphaScreen or HTRF
SEC = target: the molecule itself; test: SEC
[3] = target: T1, H6-tagged OsTPR2 N-terminal domain (TPD), TPR2(1–210) (rice, UniProt Q5NBT9 1-210); test: AlphaScreen or HTRF
T1 sequence (looked up): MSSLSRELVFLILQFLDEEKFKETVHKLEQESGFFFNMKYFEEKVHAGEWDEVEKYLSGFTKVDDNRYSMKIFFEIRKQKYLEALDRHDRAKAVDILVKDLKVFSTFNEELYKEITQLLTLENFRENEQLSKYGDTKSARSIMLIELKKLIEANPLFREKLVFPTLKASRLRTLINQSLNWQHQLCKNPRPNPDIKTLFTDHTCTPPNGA

crystal structure = target: the molecule itself; test: crystal structure
[4] = target: T2, Gal4 DBD-NINJA full length (Arabidopsis, UniProt Q9SV55 1-425); test: two-hybrid
T2 sequence (looked up): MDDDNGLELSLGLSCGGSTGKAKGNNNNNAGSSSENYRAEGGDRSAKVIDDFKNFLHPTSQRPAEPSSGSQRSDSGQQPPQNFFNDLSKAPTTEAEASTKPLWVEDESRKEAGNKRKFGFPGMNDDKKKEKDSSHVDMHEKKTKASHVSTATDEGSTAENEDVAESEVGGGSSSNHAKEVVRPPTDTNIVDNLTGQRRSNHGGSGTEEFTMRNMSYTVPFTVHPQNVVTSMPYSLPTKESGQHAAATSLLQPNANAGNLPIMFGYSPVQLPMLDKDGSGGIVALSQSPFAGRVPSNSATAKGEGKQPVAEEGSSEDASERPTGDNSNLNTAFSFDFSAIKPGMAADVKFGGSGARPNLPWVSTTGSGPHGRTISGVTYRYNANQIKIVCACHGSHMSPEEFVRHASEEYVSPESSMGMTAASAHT

Row | Molecule | stoichiometry N (SEC) | further results
1 | TraM-NINJA EAR fusion protein (tetrameric), untagged |  | stoichiometry N [1]: 4; IC50 [2]: 0.16 µM
2 | B1 | 4 | 
3 | B2 | 4 | 
4 | DNGLELSLGLSC [monomeric NINJA EAR motif peptide (12 amino acids, untagged)] |  | IC50 [3]: 38 µM
5 | B3 |  | stoichiometry N (crystal structure): 4
6 | B4 | 4 | 
7 | B5 | 4 | 
8 | B6 | 4 | 
9 | B7 |  | luciferase reporter activation above background [4]: ~2 fold
10 | B8 | 4 | 
11 | B9 | 4 | 
